Test results taken from IntAct's records for PubMed 20485341.

B1: Interleukin-1 receptor-associated kinase 4 (Homo sapiens), Q9NWZ3 (parent)
chain: MNKPITPSTYVRCLNVGLIRKLSDFIDPQEGWKKLAVAIKKPSGDDRYNQFHIRRFEALLQTGKSPTSELLFDWGTTNCTVGDLVDLLIQNEFFAPASLLLPDAVPKTANTLPSKEAITVQQKQMPFCDKDRTLMTPVQNLEQSYMPPDSSSPENKSLEVSDTRFHSFSFYELKNVTNNFDERPISVGGNKMGEGGFGVVYKGYVNNTTVAVKKLAAMVDITTEELKQQFDQEIKVMAKCQHENLVELLGFSSDGDDLCLVYVYMPNGSLLDRLSCLDGTPPLSWHMRCKIAQGAANGINFLHENHHIHRDIKSANILLDEAFTAKISDFGLARASEKFAQTVMTSRIVGTTAYMAPEALRGEITPKSDIYSFGVVLLEIITGLPAVDEHREPQLLLDIKEEIEDEEKTIEDYIDKKMNDADSTSVEAMYSVASQCLHEKKNKRPDIKKVQQLLQEMTAS
partner: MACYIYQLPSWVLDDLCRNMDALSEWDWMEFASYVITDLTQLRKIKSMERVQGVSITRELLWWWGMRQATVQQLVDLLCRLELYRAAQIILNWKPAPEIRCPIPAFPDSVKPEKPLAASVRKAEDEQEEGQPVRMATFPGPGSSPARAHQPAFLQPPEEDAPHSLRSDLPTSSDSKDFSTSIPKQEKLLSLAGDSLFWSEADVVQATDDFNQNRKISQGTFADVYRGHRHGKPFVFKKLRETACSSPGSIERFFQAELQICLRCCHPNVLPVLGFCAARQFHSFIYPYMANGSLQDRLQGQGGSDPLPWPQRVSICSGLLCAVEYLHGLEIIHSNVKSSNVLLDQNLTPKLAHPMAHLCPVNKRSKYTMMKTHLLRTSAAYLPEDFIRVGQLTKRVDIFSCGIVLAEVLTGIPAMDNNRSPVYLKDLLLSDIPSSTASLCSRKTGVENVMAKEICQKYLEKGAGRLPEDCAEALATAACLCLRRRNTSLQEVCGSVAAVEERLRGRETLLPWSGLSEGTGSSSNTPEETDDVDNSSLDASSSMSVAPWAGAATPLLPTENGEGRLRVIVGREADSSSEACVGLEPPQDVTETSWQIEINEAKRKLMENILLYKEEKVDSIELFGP
B2: Interleukin-1 receptor-associated kinase 4 (Homo sapiens), Q9NWZ3 (parent)
chain: B1 chain

Variants of: B1
Conditions: with irak2_human IRAK2, O43187

Row | effect of a mutation on the interaction | Variant
1 | disrupting interaction | MNKPITPSTYVRCLNVGLIRKLSDFIDPQEGWKKLAVAIKKPSGDDRYNKFHIRRFEALLQTGKSPTSELLFDWGTTNCTVGDLVDLLIQNEFFAPASLLLPDAVPKTANTLPSKEAITVQQKQMPFCDKDRTLMTPVQNLEQSYMPPDSSSPENKSLEVSDTRFHSFSFYELKNVTNNFDERPISVGGNKMGEGGFGVVYKGYVNNTTVAVKKLAAMVDITTEELKQQFDQEIKVMAKCQHENLVELLGFSSDGDDLCLVYVYMPNGSLLDRLSCLDGTPPLSWHMRCKIAQGAANGINFLHENHHIHRDIKSANILLDEAFTAKISDFGLARASEKFAQTVMTSRIVGTTAYMAPEALRGEITPKSDIYSFGVVLLEIITGLPAVDEHREPQLLLDIKEEIEDEEKTIEDYIDKKMNDADSTSVEAMYSVASQCLHEKKNKRPDIKKVQQLLQEMTAS [Q50K]
2 | disrupting interaction | MNKPITPSTYVRCLNVGLIRKLSDFIDPQEGWKKLAVAIKKPSGDDRYNQFHIRRFEALLQTGKSPTSELLFDWGTTNCTVGDLVDLLIQNEFFKPASLLLPDAVPKTANTLPSKEAITVQQKQMPFCDKDRTLMTPVQNLEQSYMPPDSSSPENKSLEVSDTRFHSFSFYELKNVTNNFDERPISVGGNKMGEGGFGVVYKGYVNNTTVAVKKLAAMVDITTEELKQQFDQEIKVMAKCQHENLVELLGFSSDGDDLCLVYVYMPNGSLLDRLSCLDGTPPLSWHMRCKIAQGAANGINFLHENHHIHRDIKSANILLDEAFTAKISDFGLARASEKFAQTVMTSRIVGTTAYMAPEALRGEITPKSDIYSFGVVLLEIITGLPAVDEHREPQLLLDIKEEIEDEEKTIEDYIDKKMNDADSTSVEAMYSVASQCLHEKKNKRPDIKKVQQLLQEMTAS [A95K]
3 | disrupting interaction | MNKPITPSTYVRCLNVGLIRKLSDFIDPQEGWKKLAVAIKKPSGDDRYNQFHIDRFEALLQTGKSPTSELLFDWGTTNCTVGDLVDLLIQNEFFAPASLLLPDAVPKTANTLPSKEAITVQQKQMPFCDKDRTLMTPVQNLEQSYMPPDSSSPENKSLEVSDTRFHSFSFYELKNVTNNFDERPISVGGNKMGEGGFGVVYKGYVNNTTVAVKKLAAMVDITTEELKQQFDQEIKVMAKCQHENLVELLGFSSDGDDLCLVYVYMPNGSLLDRLSCLDGTPPLSWHMRCKIAQGAANGINFLHENHHIHRDIKSANILLDEAFTAKISDFGLARASEKFAQTVMTSRIVGTTAYMAPEALRGEITPKSDIYSFGVVLLEIITGLPAVDEHREPQLLLDIKEEIEDEEKTIEDYIDKKMNDADSTSVEAMYSVASQCLHEKKNKRPDIKKVQQLLQEMTAS [R54D]
4 | disrupting interaction | MNKPITPSTYVRCLNVGLIRKLSDDIDPQEGWKKLAVAIKKPSGDDRYNQFHIRRFEALLQTGKSPTSELLFDWGTTNCTVGDLVDLLIQNEFFAPASLLLPDAVPKTANTLPSKEAITVQQKQMPFCDKDRTLMTPVQNLEQSYMPPDSSSPENKSLEVSDTRFHSFSFYELKNVTNNFDERPISVGGNKMGEGGFGVVYKGYVNNTTVAVKKLAAMVDITTEELKQQFDQEIKVMAKCQHENLVELLGFSSDGDDLCLVYVYMPNGSLLDRLSCLDGTPPLSWHMRCKIAQGAANGINFLHENHHIHRDIKSANILLDEAFTAKISDFGLARASEKFAQTVMTSRIVGTTAYMAPEALRGEITPKSDIYSFGVVLLEIITGLPAVDEHREPQLLLDIKEEIEDEEKTIEDYIDKKMNDADSTSVEAMYSVASQCLHEKKNKRPDIKKVQQLLQEMTAS [F25D]
5 | disrupting interaction | MNKPITPSTYVRCLNVGLIRKLSDFIDPQEGWKKLAVAIKKPSGDDRYNQDHIRRFEALLQTGKSPTSELLFDWGTTNCTVGDLVDLLIQNEFFAPASLLLPDAVPKTANTLPSKEAITVQQKQMPFCDKDRTLMTPVQNLEQSYMPPDSSSPENKSLEVSDTRFHSFSFYELKNVTNNFDERPISVGGNKMGEGGFGVVYKGYVNNTTVAVKKLAAMVDITTEELKQQFDQEIKVMAKCQHENLVELLGFSSDGDDLCLVYVYMPNGSLLDRLSCLDGTPPLSWHMRCKIAQGAANGINFLHENHHIHRDIKSANILLDEAFTAKISDFGLARASEKFAQTVMTSRIVGTTAYMAPEALRGEITPKSDIYSFGVVLLEIITGLPAVDEHREPQLLLDIKEEIEDEEKTIEDYIDKKMNDADSTSVEAMYSVASQCLHEKKNKRPDIKKVQQLLQEMTAS [F51D]

Variants of: B2
Conditions: with MYD88, Q99836-1
Sequence of MYD88, Q99836-1 (Q99836 whole entry): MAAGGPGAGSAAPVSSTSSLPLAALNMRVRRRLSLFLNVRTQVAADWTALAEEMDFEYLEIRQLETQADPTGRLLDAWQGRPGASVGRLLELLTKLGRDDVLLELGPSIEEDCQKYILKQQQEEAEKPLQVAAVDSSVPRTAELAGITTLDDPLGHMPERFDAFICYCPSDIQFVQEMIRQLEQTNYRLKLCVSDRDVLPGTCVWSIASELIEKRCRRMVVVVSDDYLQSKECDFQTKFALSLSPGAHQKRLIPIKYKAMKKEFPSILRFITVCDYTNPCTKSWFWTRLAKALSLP

Row | Variant | effect of a mutation on the interaction
6 | MNKPITPSTYVACLNVGLIRKLSDFIDPQEGWKKLAVAIKKPSGDDRYNQFHIRRFEALLQTGKSPTSELLFDWGTTNCTVGDLVDLLIQNEFFAPASLLLPDAVPKTANTLPSKEAITVQQKQMPFCDKDRTLMTPVQNLEQSYMPPDSSSPENKSLEVSDTRFHSFSFYELKNVTNNFDERPISVGGNKMGEGGFGVVYKGYVNNTTVAVKKLAAMVDITTEELKQQFDQEIKVMAKCQHENLVELLGFSSDGDDLCLVYVYMPNGSLLDRLSCLDGTPPLSWHMRCKIAQGAANGINFLHENHHIHRDIKSANILLDEAFTAKISDFGLARASEKFAQTVMTSRIVGTTAYMAPEALRGEITPKSDIYSFGVVLLEIITGLPAVDEHREPQLLLDIKEEIEDEEKTIEDYIDKKMNDADSTSVEAMYSVASQCLHEKKNKRPDIKKVQQLLQEMTAS [R12A] | disrupting interaction
7 | MNKPITPSTYVRCLNEGLIEKLSDFIDPQEGWKKLAVAIKKPSGDDRYNQFHIRRFEALLQTGKSPTSELLFDWGTTNCTVGDLVDLLIQNEFFAPASLLLPDAVPKTANTLPSKEAITVQQKQMPFCDKDRTLMTPVQNLEQSYMPPDSSSPENKSLEVSDTRFHSFSFYELKNVTNNFDERPISVGGNKMGEGGFGVVYKGYVNNTTVAVKKLAAMVDITTEELKQQFDQEIKVMAKCQHENLVELLGFSSDGDDLCLVYVYMPNGSLLDRLSCLDGTPPLSWHMRCKIAQGAANGINFLHENHHIHRDIKSANILLDEAFTAKISDFGLARASEKFAQTVMTSRIVGTTAYMAPEALRGEITPKSDIYSFGVVLLEIITGLPAVDEHREPQLLLDIKEEIEDEEKTIEDYIDKKMNDADSTSVEAMYSVASQCLHEKKNKRPDIKKVQQLLQEMTAS [V16E;R20E] | disrupting interaction
8 | MNKPITPSTYVRCLNVGLIRKLSDFIDPQEGWKKLAVAIKKPSGDDRYNQFHIRRFEALLQTGKSPTSKLLFDWGTTNCTVGDLVDLLIQNEFFAPASLLLPDAVPKTANTLPSKEAITVQQKQMPFCDKDRTLMTPVQNLEQSYMPPDSSSPENKSLEVSDTRFHSFSFYELKNVTNNFDERPISVGGNKMGEGGFGVVYKGYVNNTTVAVKKLAAMVDITTEELKQQFDQEIKVMAKCQHENLVELLGFSSDGDDLCLVYVYMPNGSLLDRLSCLDGTPPLSWHMRCKIAQGAANGINFLHENHHIHRDIKSANILLDEAFTAKISDFGLARASEKFAQTVMTSRIVGTTAYMAPEALRGEITPKSDIYSFGVVLLEIITGLPAVDEHREPQLLLDIKEEIEDEEKTIEDYIDKKMNDADSTSVEAMYSVASQCLHEKKNKRPDIKKVQQLLQEMTAS [E69K] | disrupting interaction

Results, then the variant that gave them:

Row | effect of a mutation on the interaction | Variant
9 | disrupting interaction | MNKPITPSTYVRCLNVGLIRKLSDFIDPQEGWKKLAVAIKKPSGDDRYNQFHIRRFEALLQTGKSPTSELLFDWGTTECTVGDLVDLLIQNEFFAPASLLLPDAVPKTANTLPSKEAITVQQKQMPFCDKDRTLMTPVQNLEQSYMPPDSSSPENKSLEVSDTRFHSFSFYELKNVTNNFDERPISVGGNKMGEGGFGVVYKGYVNNTTVAVKKLAAMVDITTEELKQQFDQEIKVMAKCQHENLVELLGFSSDGDDLCLVYVYMPNGSLLDRLSCLDGTPPLSWHMRCKIAQGAANGINFLHENHHIHRDIKSANILLDEAFTAKISDFGLARASEKFAQTVMTSRIVGTTAYMAPEALRGEITPKSDIYSFGVVLLEIITGLPAVDEHREPQLLLDIKEEIEDEEKTIEDYIDKKMNDADSTSVEAMYSVASQCLHEKKNKRPDIKKVQQLLQEMTAS [N78E]
10 | disrupting interaction | MNKPITPSTYVRCLNVGLIRKLSDFIDPQEGWKKLAVAIKKPSGDDRYNQFHIRRFEALLQTGKSPTSELLFDWGETNCTVGDLVDLLIQNEFFAPASLLLPDAVPKTANTLPSKEAITVQQKQMPFCDKDRTLMTPVQNLEQSYMPPDSSSPENKSLEVSDTRFHSFSFYELKNVTNNFDERPISVGGNKMGEGGFGVVYKGYVNNTTVAVKKLAAMVDITTEELKQQFDQEIKVMAKCQHENLVELLGFSSDGDDLCLVYVYMPNGSLLDRLSCLDGTPPLSWHMRCKIAQGAANGINFLHENHHIHRDIKSANILLDEAFTAKISDFGLARASEKFAQTVMTSRIVGTTAYMAPEALRGEITPKSDIYSFGVVLLEIITGLPAVDEHREPQLLLDIKEEIEDEEKTIEDYIDKKMNDADSTSVEAMYSVASQCLHEKKNKRPDIKKVQQLLQEMTAS [T76E]
